Biological target: SMAD3 (endogenous, A549 cells) (Homo sapiens) (UniProt P84022)
Assay: cell_activity
Conditions: luciferase activity after TGF-beta in A549; indirect

Sequence of SMAD3 (endogenous, A549 cells) (Homo sapiens) (P84022 2-425): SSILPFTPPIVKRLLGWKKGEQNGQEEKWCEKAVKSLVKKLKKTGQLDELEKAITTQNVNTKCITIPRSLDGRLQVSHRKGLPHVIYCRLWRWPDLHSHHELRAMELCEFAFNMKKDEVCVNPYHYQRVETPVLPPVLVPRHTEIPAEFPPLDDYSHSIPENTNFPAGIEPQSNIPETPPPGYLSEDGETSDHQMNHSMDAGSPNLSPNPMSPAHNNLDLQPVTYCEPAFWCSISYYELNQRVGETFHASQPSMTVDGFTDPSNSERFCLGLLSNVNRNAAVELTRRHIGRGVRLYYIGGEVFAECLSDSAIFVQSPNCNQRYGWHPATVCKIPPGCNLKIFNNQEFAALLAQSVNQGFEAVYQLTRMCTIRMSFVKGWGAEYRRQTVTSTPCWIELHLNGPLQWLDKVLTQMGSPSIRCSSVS

In the case of “let-7d promoter -1600 to +87 luciferase reporter (p-let-7d-luc)”, the activity (% of untreated reporter activity) is reported as < 30.
